Each block holds one binder with its values, some of them ahead of it.
Assays:
[1] = molecular target: T1, human IL-2Rγ expressed on cells (human, UniProt P31785 23-369); test: flow cytometry on NK-92 cells, antibody at 10 µg/ml, MFI of sample over MFI of unstained; upper end, tied to H4H12889P by Table 9-1
T1 construct: whole, on cells; on cells it stands together with the cytokine-specific receptor subunits; also called IL-2Rgamma; CD132
T1 sequence (looked up): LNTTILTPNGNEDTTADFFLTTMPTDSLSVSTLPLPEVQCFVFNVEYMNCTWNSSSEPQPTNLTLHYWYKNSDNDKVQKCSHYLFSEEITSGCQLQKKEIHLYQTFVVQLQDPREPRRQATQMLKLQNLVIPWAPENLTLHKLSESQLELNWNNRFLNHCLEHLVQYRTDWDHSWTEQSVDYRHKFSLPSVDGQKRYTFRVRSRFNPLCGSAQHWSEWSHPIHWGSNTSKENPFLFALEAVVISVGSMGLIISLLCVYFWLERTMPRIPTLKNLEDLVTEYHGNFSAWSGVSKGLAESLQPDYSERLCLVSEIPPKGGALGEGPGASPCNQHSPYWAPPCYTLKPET
Experimental: (§1) For flow cytometry analyses, the cells were pre-incubated with mouse IgG at 100 μg/ml for 15 minutes at room temperature (RT) to block the binding of the antibodies to Fc receptors. […] Cells were washed, fixed using BD CytoFix™ (BD biosciences, #554655) and analyzed on an IQue® (Intellicyt®) Flow Cytometer or Accuri Flow cytometer (BD). […] The results were analyzed using ForeCyt® (IntelliCyt®) software to determine the geometric means of fluorescence (MFI) for viable cells. Binding ratios were calculated by normalizing the MFI of the test sample by the MFI of the unstained sample.

[2] = molecular target: T1, human IL-2Rγ expressed on cells; test: flow cytometry on Jurkat cells, antibody at 10 µg/ml, MFI of sample over MFI of unstained; upper end, tied to H4H12889P by Table 9-1
Experimental: as §1

[3] = molecular target: T1, human IL-2Rγ expressed on cells; test: flow cytometry on NK-92 cells, antibody at 10 µg/ml, MFI of sample over MFI of unstained; upper end, tied by Table 9-2 to the row printed H4H13841P
[4] = molecular target: T1, human IL-2Rγ expressed on cells; test: flow cytometry on NK-92 cells, antibody at 10 µg/ml, MFI of sample over MFI of unstained; lower end, tied to H4H13538P by Table 9-2
Experimental: as §1

binding ratio [1]: 94
binding ratio [2]: 19
B1: H4H12889P (antibody, human IgG4 S228P, kappa, V domains shown)
VH: EVQLVESGGGLVQPGGSLRLSCAASGFIFSSYEMHWVRQAPGKGLEWISYISSSGTTIYYADSVKGRFTISRDNAKNSLYLHMNSLRAEDTAVYYCTRARITGTFDVFDIWGQGTMVTVSS
VL: DIQMTQSPSSLSASVGDRVTITCRASQSISSYLNWYQQKPGKAPKLLIFAASNLQSGVPSRFSGSRSGTDFTLTISSLQPEDFATYYCQQNYNIPYTFGQGTKLEIKR
notes: fully human anti-IL2Rγ antibody, human IgG4; also called REGN7257

binding ratio [3]: 37
B2: H4H13541P (antibody, human IgG4 S228P, kappa, V domains shown)
VH: EVQLVESGGGVVRPGGSLRLSCAASGFIFDDYDMSWVRQPPGRGLEWVSGIDWFGGTRGYADSMKGRFTISRDNAKNSLYLQMNSLRVEDTAFYYCARGGAIVGAVTPFDYWGQGTLVTVSS
VL: DIQMTQSPSSLSASVGNRVTLSCRASQSINTYLSWYQQRPGKAPKLLIYAASSLQSGVPSRFSGSGAGTDFTLTISSLQPEDFATYYCQQSYSAPLTFGGGTKVEIKR
notes: fully human anti-IL2Rγ antibody, human IgG4

binding ratio [4]: 1
B3: H4H13538P (antibody, human IgG4 S228P, kappa, V domains shown)
VH: EVQLVESGGGLVQPGGSLGLSCAASGFTFSNYAMSWVRQAPGKGLEWVSAVSGGGGGTYYADSVKGRFTISRDNSKNTVLLQMNSLRAEDTAVYYCARGRTGGLDYWGPGTLVTVSS
VL: DVVMTQSPLSLPVIFGQPASISCRSSQSLVDSDGNTYLNWLQQRPGQSPRRLIYEVSNRDSGVPDRFSGSGSGTDFTLTISRVEAEDVGIYYCMQGTRWPPTFGGGTKVEIKR
notes: as for B2
